# Results taken from the RNAGym collection of RNA variant scans (doi:10.1093/molbev/msab373).
# B1: Azoarcus group I ribozyme (parent)
# chain: GUGCCUUGCGCCGGGAAACCACGCAAGGGAUGGUGUCAAAUUCGGCGAAACCUAAGCGCCCGCCCGGGCGUAUGGCAACGCCGAGCCAAGCUUCGGCGCCUGCGCCGAUGAAGGUGUAGAGACUAGACGGCACCCACCUAAGGCAAACGCUAUGGUGAAGGCAUAGUCCAGGGAGUGGCGAAAGUCACACAAACCGG
# Variants of: B1
# Test: reverse-splicing fitness (ratio to wild type); higher = more active; in vitro selection; Mg2+ level not given
# How it was run: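 An in vitro group I ribozyme library with randomized positions was T7-transcribed and gel-purified. In triplicate, 10 pmol RNA in EPPS pH 7.5 was reacted with 50 pmoles of a 30-nt RNA substrate for 1 h at 37 °C across several added MgCl2 levels (1–48 mM), then stopped with EDTA. Products were reverse transcribed from a substrate-complementary primer, PCR-amplified and sequenced (HiSeq 4000). Fitness is a variant's read proportion after selection over that before, normalised to wild type.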
row,Variant,reverse-splicing fitness
1,A111U A120G A145G C150G C169A,0.0157
2,A111U A120G A145G C150G C169U,0.0237
3,A111U A120G A145G C150G C169G,0.0234
4,A111U A120G A145G C150U C169G,0.166
5,A111U A120G A145G C150U C169A,0.0845
6,A111U A120G A145G C150U C169U,0.133
7,A111U A120C A145U C150A C169U U176G,0.00493
8,A111U A120C A145U C150A C169U U176C,0.0187
9,A111U A120C A145U C150A C169U U176A,0.0185
10,A111U A120G A145C C150A C169G U176G,0.00529
11,A111U A120G A145C C150A C169G U176A,0.0261
12,A111U A120G A145C C150A C169G U176C,0.015
13,A111U A120C A145G C150A C169U,0.034
14,A111U A120C A145G C150A C169G,0.00836
15,A111U A120C A145G C150A C169A,0.0121
16,A111U A120G A145G C150U U176A,0.0295
17,A111U A120G A145G C150U U176C,0.0446
18,A111U A120C A145C C169G U176A,0.023
19,A111U A120C A145C C169G U176G,0.00463
20,A111U A120C A145C C169G U176C,0.0106
21,A111U A120C A145G C150U U176A,0.176

row,Variant,reverse-splicing fitness
1,A111U A120C A145G C150U U176G,0.0319
2,A111U A120C A145G C150U U176C,0.25
3,A111U A120C A145U C169A U176C,0.0106
4,A111U A120C A145U C169A U176G,0.0044
5,A111U A120C A145U C169A U176A,0.00962
6,A111U A120C A145C C169U,0.164
7,A111U A120C A145C C169A,0.00906
8,A111U A120C A145C C169G,0.00891
9,A111U A120C A145C C150U C169U U176A,0.0199
10,A111U A120C A145C C150U C169U U176G,0.0056
11,A111U A120C A145C C150U C169U U176C,0.0178
12,A111U A120C C150G,0.0482
13,A111U A120C C150U,0.348
14,A111U A120C C150A,0.0636
15,A111U A120C C150A C169G,0.00847
16,A111U A120C C150A C169A,0.0105
17,A111U A120C C150A C169U,0.0239
18,A111U A120C A145G C150G,0.0716
19,A111U A120C A145G C150U,0.495
20,A111U A120C A145G C150A,0.0986
21,A111U A120C A145U C150G C169A,0.00829

row,Variant,reverse-splicing fitness
1,A111U A120C A145U C150G C169G,0.00662
2,A111U A120C A145U C150G C169U,0.0242
3,A111U A120C A145G C150U C169A U176A,0.0143
4,A111U A120C A145G C150U C169A U176C,0.0138
5,A111U A120C A145G C150U C169A U176G,0.00555
6,A111U A120G A145G C150U C169U U176A,0.0386
7,A111U A120G A145G C150U C169U U176G,0.00563
8,A111U A120G A145G C150U C169U U176C,0.0447
9,A111U A120G A145C C150U C169U U176A,0.0278
10,A111U A120G A145C C150U C169U U176G,0.00469
11,A111U A120G A145C C150U C169U U176C,0.0209
12,A111U A120C A145C C150U C169A U176C,0.00539
13,A111U A120C A145C C150U C169A U176G,0.00529
14,A111U A120C A145C C150U C169A U176A,0.00887
15,A111U A120G A145C C150G C169G U176A,0.00926
16,A111U A120G A145C C150G C169G U176C,0.00636
17,A111U A120G A145C C150G C169G U176G,0.00359
18,A111U A120C A145U C150G C169U U176A,0.0117
19,A111U A120C A145U C150G C169U U176C,0.0166
20,A111U A120C A145U C150G C169U U176G,0.00475
21,A111U A120C C169U U176C,0.0473

row,Variant,reverse-splicing fitness
1,A111U A120C C169U U176G,0.00626
2,A111U A120C C169U U176A,0.0322
3,A111U A120C C150A C169G U176A,0.0168
4,A111U A120C C150A C169G U176G,0.00525
5,A111U A120C C150A C169G U176C,0.0197
6,A111U A120C C150G C169A U176C,0.0104
7,A111U A120C C150G C169A U176A,0.00901
8,A111U A120C C150G C169A U176G,0.00573
9,A111U A120C A145U C150A U176A,0.034
10,A111U A120C A145U C150A U176C,0.0509
11,A111U A120C A145U C150A U176G,0.0114
12,A111U A120C A145G C150G C169U U176G,0.00652
13,A111U A120C A145G C150G C169U U176C,0.0127
14,A111U A120C A145G C150G C169U U176A,0.0118
15,A111U A120C A145G C150A C169G U176C,0.0246
16,A111U A120C A145G C150A C169G U176G,0.00488
17,A111U A120C A145G C150A C169G U176A,0.0161
18,A111U A120C A145G C150U C169U U176C,0.0389
19,A111U A120C A145G C150U C169U U176G,0.0053
20,A111U A120C A145G C150U C169U U176A,0.0282
